Results on six molecules are retold here after patent publication US20260209293A1 (Novo Nordisk, published 2026).

Test [1] addresses T1, human calcitonin receptor (a) (human, UniProt P30988 25-474).
T1 sequence (looked up): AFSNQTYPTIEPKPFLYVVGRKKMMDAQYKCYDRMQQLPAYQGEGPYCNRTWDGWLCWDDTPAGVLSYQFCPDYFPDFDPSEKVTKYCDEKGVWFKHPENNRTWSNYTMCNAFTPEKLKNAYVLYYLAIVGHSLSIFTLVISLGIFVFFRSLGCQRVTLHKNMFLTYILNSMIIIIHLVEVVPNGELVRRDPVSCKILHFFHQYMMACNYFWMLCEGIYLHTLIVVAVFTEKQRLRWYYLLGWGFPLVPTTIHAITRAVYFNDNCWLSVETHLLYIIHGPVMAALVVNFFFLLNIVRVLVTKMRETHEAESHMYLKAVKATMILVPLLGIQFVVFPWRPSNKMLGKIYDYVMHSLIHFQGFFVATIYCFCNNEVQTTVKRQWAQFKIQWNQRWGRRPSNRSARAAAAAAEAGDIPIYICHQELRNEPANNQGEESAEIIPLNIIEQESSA
Kind of test: cell-based or functional assay.

Test [2] addresses T2, human amylin-3(a) receptor (human, UniProt P30988 25-474; O60896 24-148).
T2 sequence (looked up) 1: T1 sequence (looked up)
T2 sequence (looked up) 2: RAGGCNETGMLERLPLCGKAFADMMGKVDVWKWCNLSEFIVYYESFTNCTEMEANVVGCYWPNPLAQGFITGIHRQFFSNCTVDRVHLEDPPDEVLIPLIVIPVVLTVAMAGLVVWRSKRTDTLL
Kind of test: cell-based or functional assay.

*1 amine or outer side, *2 acyl side, *3 side chain or, on linkers, in order; H or OH if unused. The star is where a group is joined. C18 diacid = O=C(O)CCCCCCCCCCCCCCCCC(=O)*; γGlu = O=C(O)[C@H](CCC(=O)[*:2])N[*:1]

B1: N^1-[(4S)-4-carboxy-4-(17-carboxyheptadecanoylamino)butanoyl]-[Ala1,Ser2,Leu4,Ala7,Gln8,Glu14,His17,Asp21,Pro22,Pro27,Asp31, Pro34,Asp35,Pro37]-human amylin (peptide)
peptide: {C18 diacid-γGlu}-ASNLATAQTQRLAEFLHHSSDPFGAIPSSTDVGPDTP-NH2
SMILES: CC[C@H](C)[C@H](NC(=O)[C@H](C)NC(=O)CNC(=O)[C@H](Cc1ccccc1)NC(=O)[C@@H]1CCCN1C(=O)[C@H](CC(=O)O)NC(=O)[C@H](CO)NC(=O)[C@H](CO)NC(=O)[C@H](Cc1c[nH]cn1)NC(=O)[C@H](Cc1c[nH]cn1)NC(=O)[C@H](CC(C)C)NC(=O)[C@H](Cc1ccccc1)NC(=O)[C@H](CCC(=O)O)NC(=O)[C@H](C)NC(=O)[C@H](CC(C)C)NC(=O)[C@H](CCCNC(=N)N)NC(=O)[C@H](CCC(N)=O)NC(=O)[C@@H](NC(=O)[C@H](CCC(N)=O)NC(=O)[C@H](C)NC(=O)[C@@H](NC(=O)[C@H](C)NC(=O)[C@H](CC(C)C)NC(=O)[C@H](CC(N)=O)NC(=O)[C@H](CO)NC(=O)[C@H](C)NC(=O)CC[C@H](NC(=O)CCCCCCCCCCCCCCCCC(=O)O)C(=O)O)[C@@H](C)O)[C@@H](C)O)C(=O)N1CCC[C@H]1C(=O)N[C@@H](CO)C(=O)N[C@@H](CO)C(=O)N[C@H](C(=O)N[C@@H](CC(=O)O)C(=O)N[C@H](C(=O)NCC(=O)N1CCC[C@H]1C(=O)N[C@@H](CC(=O)O)C(=O)N[C@H](C(=O)N1CCC[C@H]1C(N)=O)[C@@H](C)O)C(C)C)[C@@H](C)O
For the molecule B1, the “hCalcR potency, EC50 (pM); CRE-luciferase reporter in BHK cells” value (“hCalcR potency, EC50 (pM)” below) in test [1] is 1.99 pM. Besides, the “hAmyR3 potency, EC50 (pM); CRE-luciferase reporter in BHK cells” value (“hAmyR3 potency, EC50 (pM)” below) in test [2] is 1.88 pM.

B2: N^1-[(4S)-4-carboxy-4-(17-carboxyheptadecanoylamino)butanoyl]-[Ala1,Gly2,Ser3,Leu4,Ser5,Ala7,Gln8,Ala10,Glu14,His17,Pro25,Pro28,Pro29,Asp31,Glu35,Pro37],des-(19 … (peptide)
peptide: {C18 diacid-γGlu}-AGSLSTAQTARLAEFLHHFGPILPPTDVGSETP-NH2
SMILES: CC[C@H](C)[C@H](NC(=O)[C@@H]1CCCN1C(=O)CNC(=O)[C@H](Cc1ccccc1)NC(=O)[C@H](Cc1c[nH]cn1)NC(=O)[C@H](Cc1c[nH]cn1)NC(=O)[C@H](CC(C)C)NC(=O)[C@H](Cc1ccccc1)NC(=O)[C@H](CCC(=O)O)NC(=O)[C@H](C)NC(=O)[C@H](CC(C)C)NC(=O)[C@H](CCCNC(=N)N)NC(=O)[C@H](C)NC(=O)[C@@H](NC(=O)[C@H](CCC(N)=O)NC(=O)[C@H](C)NC(=O)[C@@H](NC(=O)[C@H](CO)NC(=O)[C@H](CC(C)C)NC(=O)[C@H](CO)NC(=O)CNC(=O)[C@H](C)NC(=O)CC[C@H](NC(=O)CCCCCCCCCCCCCCCCC(=O)O)C(=O)O)[C@@H](C)O)[C@@H](C)O)C(=O)N[C@@H](CC(C)C)C(=O)N1CCC[C@H]1C(=O)N1CCC[C@H]1C(=O)N[C@H](C(=O)N[C@@H](CC(=O)O)C(=O)N[C@H](C(=O)NCC(=O)N[C@@H](CO)C(=O)N[C@@H](CCC(=O)O)C(=O)N[C@H](C(=O)N1CCC[C@H]1C(N)=O)[C@@H](C)O)C(C)C)[C@@H](C)O
Turning to B2, the “hCalcR potency, EC50 (pM)” value in test [1] was 1.01 pM. Moreover, the “hAmyR3 potency, EC50 (pM)” value in test [2] amounted to 0.81 pM.

B3: N^1-[(4S)-4-carboxy-4-(17-carboxyheptadecanoylamino)butanoyl]-[Ala1,Gly2,Glu3,Leu4,Ser5,Ala7,Gln8,Ala10,Glu14,His17,Pro25,Pro28,Pro29,Asp31,Glu35,Pro37],des-(19 … (peptide)
peptide: {C18 diacid-γGlu}-AGELSTAQTARLAEFLHHFGPILPPTDVGSETP-NH2
SMILES: CC[C@H](C)[C@H](NC(=O)[C@@H]1CCCN1C(=O)CNC(=O)[C@H](Cc1ccccc1)NC(=O)[C@H](Cc1c[nH]cn1)NC(=O)[C@H](Cc1c[nH]cn1)NC(=O)[C@H](CC(C)C)NC(=O)[C@H](Cc1ccccc1)NC(=O)[C@H](CCC(=O)O)NC(=O)[C@H](C)NC(=O)[C@H](CC(C)C)NC(=O)[C@H](CCCNC(=N)N)NC(=O)[C@H](C)NC(=O)[C@@H](NC(=O)[C@H](CCC(N)=O)NC(=O)[C@H](C)NC(=O)[C@@H](NC(=O)[C@H](CO)NC(=O)[C@H](CC(C)C)NC(=O)[C@H](CCC(=O)O)NC(=O)CNC(=O)[C@H](C)NC(=O)CC[C@H](NC(=O)CCCCCCCCCCCCCCCCC(=O)O)C(=O)O)[C@@H](C)O)[C@@H](C)O)C(=O)N[C@@H](CC(C)C)C(=O)N1CCC[C@H]1C(=O)N1CCC[C@H]1C(=O)N[C@H](C(=O)N[C@@H](CC(=O)O)C(=O)N[C@H](C(=O)NCC(=O)N[C@@H](CO)C(=O)N[C@@H](CCC(=O)O)C(=O)N[C@H](C(=O)N1CCC[C@H]1C(N)=O)[C@@H](C)O)C(C)C)[C@@H](C)O
Regarding B3, in test [1], the “hCalcR potency, EC50 (pM)” value was 1.03 pM. In test [2], the “hAmyR3 potency, EC50 (pM)” value was 1.25 pM.

B4: N^1-[(4S)-4-carboxy-4-(17-carboxyheptadecanoylamino)butanoyl]-[Ala1,Ser2,His3,Leu4,Ser5,Ala7,Gln8,Ala10,Glu14,His17,Asp21,Pro25,Pro28,Pro29,Asp31,Pro37]-human … (peptide)
peptide: {C18 diacid-γGlu}-ASHLSTAQTARLAEFLHHSSDNFGPILPPTDVGSNTP-NH2
SMILES: CC[C@H](C)[C@H](NC(=O)[C@@H]1CCCN1C(=O)CNC(=O)[C@H](Cc1ccccc1)NC(=O)[C@H](CC(N)=O)NC(=O)[C@H](CC(=O)O)NC(=O)[C@H](CO)NC(=O)[C@H](CO)NC(=O)[C@H](Cc1c[nH]cn1)NC(=O)[C@H](Cc1c[nH]cn1)NC(=O)[C@H](CC(C)C)NC(=O)[C@H](Cc1ccccc1)NC(=O)[C@H](CCC(=O)O)NC(=O)[C@H](C)NC(=O)[C@H](CC(C)C)NC(=O)[C@H](CCCNC(=N)N)NC(=O)[C@H](C)NC(=O)[C@@H](NC(=O)[C@H](CCC(N)=O)NC(=O)[C@H](C)NC(=O)[C@@H](NC(=O)[C@H](CO)NC(=O)[C@H](CC(C)C)NC(=O)[C@H](Cc1c[nH]cn1)NC(=O)[C@H](CO)NC(=O)[C@H](C)NC(=O)CC[C@H](NC(=O)CCCCCCCCCCCCCCCCC(=O)O)C(=O)O)[C@@H](C)O)[C@@H](C)O)C(=O)N[C@@H](CC(C)C)C(=O)N1CCC[C@H]1C(=O)N1CCC[C@H]1C(=O)N[C@H](C(=O)N[C@@H](CC(=O)O)C(=O)N[C@H](C(=O)NCC(=O)N[C@@H](CO)C(=O)N[C@@H](CC(N)=O)C(=O)N[C@H](C(=O)N1CCC[C@H]1C(N)=O)[C@@H](C)O)C(C)C)[C@@H](C)O
Turning to B4, the “hCalcR potency, EC50 (pM)” value in test [1] was 1.63 pM. In test [2], the “hAmyR3 potency, EC50 (pM)” value amounted to 1.28 pM.

B5: N^1-[(4S)-4-carboxy-4-(17-carboxyheptadecanoylamino)butanoyl]-[Ala1,Gly2,Ser3,Leu4,Ser5,Ala7,Gln8,Ala10,Glu14,His17,Asp21, Pro25,Pro28,Pro29,Asp31,Pro37]-human … (peptide)
peptide: {C18 diacid-γGlu}-AGSLSTAQTARLAEFLHHSSDNFGPILPPTDVGSNTP-NH2
SMILES: CC[C@H](C)[C@H](NC(=O)[C@@H]1CCCN1C(=O)CNC(=O)[C@H](Cc1ccccc1)NC(=O)[C@H](CC(N)=O)NC(=O)[C@H](CC(=O)O)NC(=O)[C@H](CO)NC(=O)[C@H](CO)NC(=O)[C@H](Cc1c[nH]cn1)NC(=O)[C@H](Cc1c[nH]cn1)NC(=O)[C@H](CC(C)C)NC(=O)[C@H](Cc1ccccc1)NC(=O)[C@H](CCC(=O)O)NC(=O)[C@H](C)NC(=O)[C@H](CC(C)C)NC(=O)[C@H](CCCNC(=N)N)NC(=O)[C@H](C)NC(=O)[C@@H](NC(=O)[C@H](CCC(N)=O)NC(=O)[C@H](C)NC(=O)[C@@H](NC(=O)[C@H](CO)NC(=O)[C@H](CC(C)C)NC(=O)[C@H](CO)NC(=O)CNC(=O)[C@H](C)NC(=O)CC[C@H](NC(=O)CCCCCCCCCCCCCCCCC(=O)O)C(=O)O)[C@@H](C)O)[C@@H](C)O)C(=O)N[C@@H](CC(C)C)C(=O)N1CCC[C@H]1C(=O)N1CCC[C@H]1C(=O)N[C@H](C(=O)N[C@@H](CC(=O)O)C(=O)N[C@H](C(=O)NCC(=O)N[C@@H](CO)C(=O)N[C@@H](CC(N)=O)C(=O)N[C@H](C(=O)N1CCC[C@H]1C(N)=O)[C@@H](C)O)C(C)C)[C@@H](C)O
With B5, in test [1], the “hCalcR potency, EC50 (pM)” value is 1.58 pM. The “hAmyR3 potency, EC50 (pM)” value in test [2] was found to be 1.36 pM.

B6: N^1-[(4S)-4-carboxy-4-(17-carboxyheptadecanoylamino)butanoyl]-[Ala1,Gly2,Glu3,Leu4,Ser5,Ala7,Gln8,Glu14,His17,Asp21, Pro22,Pro27,Asp31, Pro34,Asp35, … (peptide)
peptide: {C18 diacid-γGlu}-AGELSTAQTQRLAEFLHHSSDPFGAIPSSTDVGPDTP-NH2
SMILES: CC[C@H](C)[C@H](NC(=O)[C@H](C)NC(=O)CNC(=O)[C@H](Cc1ccccc1)NC(=O)[C@@H]1CCCN1C(=O)[C@H](CC(=O)O)NC(=O)[C@H](CO)NC(=O)[C@H](CO)NC(=O)[C@H](Cc1c[nH]cn1)NC(=O)[C@H](Cc1c[nH]cn1)NC(=O)[C@H](CC(C)C)NC(=O)[C@H](Cc1ccccc1)NC(=O)[C@H](CCC(=O)O)NC(=O)[C@H](C)NC(=O)[C@H](CC(C)C)NC(=O)[C@H](CCCNC(=N)N)NC(=O)[C@H](CCC(N)=O)NC(=O)[C@@H](NC(=O)[C@H](CCC(N)=O)NC(=O)[C@H](C)NC(=O)[C@@H](NC(=O)[C@H](CO)NC(=O)[C@H](CC(C)C)NC(=O)[C@H](CCC(=O)O)NC(=O)CNC(=O)[C@H](C)NC(=O)CC[C@H](NC(=O)CCCCCCCCCCCCCCCCC(=O)O)C(=O)O)[C@@H](C)O)[C@@H](C)O)C(=O)N1CCC[C@H]1C(=O)N[C@@H](CO)C(=O)N[C@@H](CO)C(=O)N[C@H](C(=O)N[C@@H](CC(=O)O)C(=O)N[C@H](C(=O)NCC(=O)N1CCC[C@H]1C(=O)N[C@@H](CC(=O)O)C(=O)N[C@H](C(=O)N1CCC[C@H]1C(N)=O)[C@@H](C)O)C(C)C)[C@@H](C)O
Consider B6, for which the “hCalcR potency, EC50 (pM)” value in test [1] is 1.58 pM. Moreover, the “hAmyR3 potency, EC50 (pM)” value in test [2] is 2.43 pM.
